# Measurements: patent US20230002480A1
# Columns and labels:
# Assay in all cases: cell-based or functional assay
# [1] = target: HIV-1 Env of pseudovirus 1056_10_TA11_1826 (HIV-1)
# [2] = target: HIV-1 Env of pseudovirus 231965.c01 (HIV-1)
# [3] = target: HIV-1 Env of pseudovirus 249M B10 (HIV-1)
# [4] = target: HIV-1 Env of pseudovirus 3301.v1.c24 (HIV-1)
# [5] = target: HIV-1 Env of pseudovirus 3365.v2.c2 (HIV-1)
# [6] = target: HIV-1 Env of pseudovirus 62357_14_D3_4589 (HIV-1)
# [7] = target: HIV-1 Env of pseudovirus 6480.v4.c25 (HIV-1)
# [8] = target: HIV-1 Env of pseudovirus 6545.v4.c1 (HIV-1)
# [9] = target: HIV-1 Env of pseudovirus 6811.v7.c18 (HIV-1)
# [10] = target: HIV-1 Env of pseudovirus 6952.v1.c20 (HIV-1)
# [11] = target: HIV-1 Env of pseudovirus 9004SS_A3_4 (HIV-1)
# [12] = target: HIV-1 Env of pseudovirus BF1266.431a (HIV-1)
# [13] = target: HIV-1 Env of pseudovirus BJOX015000.11.5 (HIV-1)
# [14] = target: HIV-1 Env of pseudovirus BJOX025000.01.1 (HIV-1)
# [15] = target: HIV-1 Env of pseudovirus C1080.c03 (HIV-1)
# [16] = target: HIV-1 Env of pseudovirus C2101.c01 (HIV-1)
# [17] = target: HIV-1 Env of pseudovirus C3347.c11 (HIV-1)
# [18] = target: HIV-1 Env of pseudovirus CAP210.2.00.E8 (HIV-1)
# [19] = target: HIV-1 Env of pseudovirus CNE19 (HIV-1)
# [20] = target: HIV-1 Env of pseudovirus CNE58 (HIV-1)
# [21] = target: HIV-1 Env of pseudovirus Ce0393_C3 (HIV-1)
# [22] = target: HIV-1 Env of pseudovirus Ce0682_E4 (HIV-1)
# [23] = target: HIV-1 Env of pseudovirus Ce1086_B2 (HIV-1)
# [24] = target: HIV-1 Env of pseudovirus Ce2010_F5 (HIV-1)
# [25] = target: HIV-1 Env of pseudovirus HIV-16055-2.3 (HIV-1)
# [26] = target: HIV-1 Env of pseudovirus P1981_C5_3 (HIV-1)
# [27] = target: HIV-1 Env of pseudovirus Q769.d22 (HIV-1)
# [28] = target: HIV-1 Env of pseudovirus R2184.c04 (HIV-1)
# [29] = target: HIV-1 Env of pseudovirus SC422661.8 (HIV-1)
# [30] = target: HIV-1 Env of pseudovirus T251-18 (HIV-1)
# [31] = target: HIV-1 Env of pseudovirus TRJO4551.58 (HIV-1)
# [32] = target: HIV-1 Env of pseudovirus WITO4160.33 (HIV-1)
# [33] = target: HIV-1 Env of pseudovirus X2131_C1_B5 (HIV-1)
# [34] = target: HIV-1 Env of pseudovirus ZM109F.PB4 (HIV-1)
# [35] = target: HIV-1 Env of pseudovirus ZM197M.PB7 (HIV-1)
# [36] = target: HIV-1 Env of pseudovirus ZM249M.PL1 (HIV-1)
# [37] = target: HIV-1 Env of pseudovirus ZM53M.PB12 (HIV-1)
substance,measurement,setting,value
NIH 45-46 (antibody),neutralization IC50,[1],0.12 µg/mL
same,neutralization IC80,[1],0.59 µg/mL
same,"IC50, titer in TZM.bl cells",[2],0.1 µg/mL
same,"IC80, titer in TZM.bl cells",[2],0.1 µg/mL
same,neutralization IC50,[3],0.04 µg/mL
same,neutralization IC80,[3],0.17 µg/mL
same,"IC50, titer in TZM.bl cells",[4],0.01 µg/mL
same,"IC80, titer in TZM.bl cells",[4],0.03 µg/mL
same,neutralization IC50,[5],0.11 µg/mL
same,neutralization IC80,[5],0.11 µg/mL
same,neutralization IC50,[6],0.05 µg/mL
same,neutralization IC80,[6],0.22 µg/mL
same,"IC50, titer in TZM.bl cells",[7],0.02 µg/mL
same,"IC80, titer in TZM.bl cells",[7],0.08 µg/mL
same,"IC50, titer in TZM.bl cells",[8],> 50 µg/mL
same,"IC80, titer in TZM.bl cells",[8],> 50 µg/mL
same,"IC50, titer in TZM.bl cells",[9],0.03 µg/mL
same,"IC80, titer in TZM.bl cells",[9],0.13 µg/mL
same,"IC50, titer in TZM.bl cells",[10],0.02 µg/mL
same,"IC80, titer in TZM.bl cells",[10],0.07 µg/mL
same,neutralization IC50,[11],0.18 µg/mL
same,neutralization IC80,[11],0.65 µg/mL
same,neutralization IC50,[12],0.01 µg/mL
same,neutralization IC80,[12],0.03 µg/mL
same,"IC50, titer in TZM.bl cells",[13],0.06 µg/mL
same,"IC80, titer in TZM.bl cells",[13],0.38 µg/mL
same,"IC50, titer in TZM.bl cells",[14],0.18 µg/mL
same,"IC80, titer in TZM.bl cells",[14],10 µg/mL
same,"IC50, titer in TZM.bl cells",[15],1.79 µg/mL
same,"IC80, titer in TZM.bl cells",[15],18 µg/mL
same,"IC50, titer in TZM.bl cells",[16],12.8 µg/mL
same,"IC80, titer in TZM.bl cells",[16],> 50 µg/mL
same,"IC50, titer in TZM.bl cells",[17],0.03 µg/mL
same,"IC80, titer in TZM.bl cells",[17],0.18 µg/mL
same,neutralization IC50,[18],> 50 µg/mL
same,neutralization IC80,[18],> 50 µg/mL
same,neutralization IC50,[19],0.07 µg/mL
same,neutralization IC80,[19],0.37 µg/mL
same,neutralization IC50,[20],0.25 µg/mL
same,neutralization IC80,[20],1.49 µg/mL
same,neutralization IC50,[21],0.32 µg/mL
same,neutralization IC80,[21],1.07 µg/mL
same,neutralization IC50,[22],0.07 µg/mL
same,neutralization IC80,[22],0.25 µg/mL
same,neutralization IC50,[23],0.04 µg/mL
same,neutralization IC80,[23],0.28 µg/mL
same,neutralization IC50,[24],0.13 µg/mL
same,neutralization IC80,[24],0.43 µg/mL
same,neutralization IC50,[25],0.02 µg/mL
same,neutralization IC80,[25],0.06 µg/mL
same,"IC50, titer in TZM.bl cells",[26],0.05 µg/mL
same,"IC80, titer in TZM.bl cells",[26],0.22 µg/mL
same,neutralization IC50,[27],0.01 µg/mL
same,neutralization IC80,[27],0.04 µg/mL
same,"IC50, titer in TZM.bl cells",[28],0.03 µg/mL
same,"IC80, titer in TZM.bl cells",[28],0.12 µg/mL
same,neutralization IC50,[29],0.01 µg/mL
same,neutralization IC80,[29],0.07 µg/mL
same,"IC50, titer in TZM.bl cells",[30],5.26 µg/mL
same,"IC80, titer in TZM.bl cells",[30],5.26 µg/mL
same,neutralization IC50,[31],0.01 µg/mL
same,neutralization IC80,[31],0.05 µg/mL
same,neutralization IC50,[32],0.01 µg/mL
same,neutralization IC80,[32],0.08 µg/mL
same,"IC50, titer in TZM.bl cells",[33],0.2 µg/mL
same,"IC80, titer in TZM.bl cells",[33],0.9 µg/mL
same,neutralization IC50,[34],0.22 µg/mL
same,neutralization IC80,[34],0.22 µg/mL
same,neutralization IC50,[35],0.14 µg/mL
same,neutralization IC80,[35],0.64 µg/mL
same,neutralization IC50,[36],0.02 µg/mL
same,neutralization IC80,[36],0.06 µg/mL
same,neutralization IC50,[37],0.65 µg/mL
same,neutralization IC80,[37],0.65 µg/mL
VRC07 (antibody),neutralization IC50,[1],0.239 µg/mL
same,neutralization IC80,[1],1.11 µg/mL
same,"IC50, titer in TZM.bl cells",[2],0.085 µg/mL
same,"IC80, titer in TZM.bl cells",[2],0.263 µg/mL
same,neutralization IC50,[3],0.052 µg/mL
same,neutralization IC80,[3],0.204 µg/mL
same,"IC50, titer in TZM.bl cells",[4],0.027 µg/mL
same,"IC80, titer in TZM.bl cells",[4],0.073 µg/mL
same,neutralization IC50,[5],0.038 µg/mL
same,neutralization IC80,[5],0.109 µg/mL
same,neutralization IC50,[6],0.075 µg/mL
same,neutralization IC80,[6],0.256 µg/mL
same,"IC50, titer in TZM.bl cells",[7],0.032 µg/mL
same,"IC80, titer in TZM.bl cells",[7],0.134 µg/mL
same,"IC50, titer in TZM.bl cells",[8],> 50 µg/mL
same,"IC80, titer in TZM.bl cells",[8],> 50 µg/mL
same,"IC50, titer in TZM.bl cells",[9],0.093 µg/mL
same,"IC80, titer in TZM.bl cells",[9],0.435 µg/mL
same,"IC50, titer in TZM.bl cells",[10],0.064 µg/mL
same,"IC80, titer in TZM.bl cells",[10],0.181 µg/mL
same,neutralization IC50,[11],0.218 µg/mL
same,neutralization IC80,[11],0.75 µg/mL
same,neutralization IC50,[12],0.032 µg/mL
same,neutralization IC80,[12],0.117 µg/mL
same,"IC50, titer in TZM.bl cells",[13],0.054 µg/mL
same,"IC80, titer in TZM.bl cells",[13],0.479 µg/mL
same,"IC50, titer in TZM.bl cells",[14],0.279 µg/mL
same,"IC80, titer in TZM.bl cells",[14],2.29 µg/mL
same,"IC50, titer in TZM.bl cells",[15],2.03 µg/mL
same,"IC80, titer in TZM.bl cells",[15],8.25 µg/mL
same,"IC50, titer in TZM.bl cells",[16],0.238 µg/mL
same,"IC80, titer in TZM.bl cells",[16],1.4 µg/mL
same,"IC50, titer in TZM.bl cells",[17],0.06 µg/mL
same,"IC80, titer in TZM.bl cells",[17],0.38 µg/mL
same,neutralization IC50,[18],> 50 µg/mL
same,neutralization IC80,[18],> 50 µg/mL
same,neutralization IC50,[19],0.092 µg/mL
same,neutralization IC80,[19],0.232 µg/mL
same,neutralization IC50,[20],0.11 µg/mL
same,neutralization IC80,[20],0.298 µg/mL
same,neutralization IC50,[21],0.182 µg/mL
same,neutralization IC80,[21],0.634 µg/mL
same,neutralization IC50,[22],0.039 µg/mL
same,neutralization IC80,[22],0.239 µg/mL
same,neutralization IC50,[23],0.128 µg/mL
same,neutralization IC80,[23],0.84 µg/mL
same,neutralization IC50,[24],0.131 µg/mL
same,neutralization IC80,[24],0.48 µg/mL
same,neutralization IC50,[25],0.025 µg/mL
same,neutralization IC80,[25],0.135 µg/mL
same,"IC50, titer in TZM.bl cells",[26],0.213 µg/mL
same,"IC80, titer in TZM.bl cells",[26],0.609 µg/mL
same,neutralization IC50,[27],0.018 µg/mL
same,neutralization IC80,[27],0.087 µg/mL
same,"IC50, titer in TZM.bl cells",[28],0.02 µg/mL
same,"IC80, titer in TZM.bl cells",[28],0.104 µg/mL
same,neutralization IC50,[29],0.054 µg/mL
same,neutralization IC80,[29],0.175 µg/mL
same,"IC50, titer in TZM.bl cells",[30],1.32 µg/mL
same,"IC80, titer in TZM.bl cells",[30],6.49 µg/mL
same,neutralization IC50,[31],0.032 µg/mL
same,neutralization IC80,[31],0.125 µg/mL
same,neutralization IC50,[32],0.042 µg/mL
same,neutralization IC80,[32],0.193 µg/mL
same,"IC50, titer in TZM.bl cells",[33],0.219 µg/mL
same,"IC80, titer in TZM.bl cells",[33],1.03 µg/mL
same,neutralization IC50,[34],0.112 µg/mL
same,neutralization IC80,[34],0.389 µg/mL
same,neutralization IC50,[35],0.307 µg/mL
same,neutralization IC80,[35],1.27 µg/mL
same,neutralization IC50,[36],0.041 µg/mL
same,neutralization IC80,[36],0.145 µg/mL
same,neutralization IC50,[37],0.275 µg/mL
same,neutralization IC80,[37],1.29 µg/mL
